Data set [1] is described as follows: mass photometry in GDN, super-dimer/heterodimer ratio. As to conditions: glycan changed form; control: fully sialylated WT.
The nature of data set [2]: native MS, super-dimer vs heterodimer abundance. Particulars: glycan changed form; control: fully glycosylated WT.

B1: 4F2hc (4F2 cell-surface antigen heavy chain): neuraminidase (desialylated) (protein)
parent chain: MELQPPEASIAVVSIPRQLPGSHSEAGVQGLSAGDDSELGSHCVAQTGLELLASGDPLPSASQNAEMIETGSDCVTQAGLQLLASSDPPALASKNAEVTGTMSQDTEVDMKEVELNELEPEKQPMNAASGAAMSLAGAEKNGLVKIKVAEDEAEAAAAAKFTGLSKEELLKVAGSPGWVRTRWALLLLFWLGWLGMLAGAVVIIVRAPRCRELPAQKWWHTGALYRIGDLQAFQGHGAGNLAGLKGRLDYLSSLKVKGLVLGPIHKNQKDDVAQTDLLQIDPNFGSKEDFDSLLQSAKKKSIRVILDLTPNYRGENSWFSTQVDTVATKVKDALEFWLQAGVDGFQVRDIENLKDASSFLAEWQNITKGFSEDRLLIAGTNSSDLQQILSLLESNKDLLLTSSYLSDSGSTGEHTKSLVTQYLNATGNRWCSWSLSQARLLTSFLPAQLLRLYQLMLFTLPGTPVFSYGDEIGLDAAALPGQPMEAPVMLWDESSFPDIPGAVSANMTVKGQSEDPGSLLSLFRRLSDQRSKERSLLHGDFHAFSAGPGLFSYIRHWDQNERFLVVLNFGDVGLSAGLQASDLPASASLPAKADLLLSTQPGREEGSPLELERLKLEPHEGLLLRFPYAA
As for B1, the oligomerisation result in data set [1] and in data set [2] was “decreases” throughout.

(Values after publication PMC11065870.)
